Measured values as given in publication PMC9132103.

Tests used:
[1] = target: human IL-10Rβ extracellular domain (residues 20-220), biotinylated, from Hi5 cells (human) (UniProt Q08334)
[2] = target: Clone 5.1 (super-10) in the presence of IL-10Rα ECD (UniProt P22301)
[3] = target: Clone 5.1 (super-10), affinity-matured mono-IL-10 clone (UniProt P22301)

human IL-10Rβ extracellular domain (residues 20-220), biotinylated, from Hi5 cells (human), sequence (Q08334 20-220): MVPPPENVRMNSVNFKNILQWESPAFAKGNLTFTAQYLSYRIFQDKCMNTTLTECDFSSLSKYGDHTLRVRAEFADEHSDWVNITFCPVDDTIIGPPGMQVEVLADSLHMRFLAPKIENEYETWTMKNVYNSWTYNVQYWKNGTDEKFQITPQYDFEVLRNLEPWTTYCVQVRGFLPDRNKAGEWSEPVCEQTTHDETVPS
human IL-10Rβ extracellular domain (residues 20-220), biotinylated, from Hi5 cells, sequence (Q08334 20-220): as above

| phospho-STAT3 by flow cytometry, YT-1 cells, relative to WT IL-10 [1] | Kd [2] | Kd [3] | Substance |
| --- | --- | --- | --- |
| 50% |  |  | IL-10 D25A/E96A (10-DE) (from UniProt P22301 19-178) (ligand) |
| 50% |  |  | IL-10 D25K (from UniProt P22301 19-178) (ligand) |
|  | 30 nM | 70 nM | human IL-10Rβ extracellular domain (residues 20-220), biotinylated, from Hi5 cells (from UniProt Q08334 20-220) (receptor) |
